Key:
[1] = biological target: human IL-7Rα expressed on non-T cells (CD3- cells, monocytes) (human) (UniProt P16871); assay: cell-based or functional assay
[2] = biological target: T1, hIL-7R (Example 11) (human) (UniProt P16871); assay: SPR at 37C
T1 sequence: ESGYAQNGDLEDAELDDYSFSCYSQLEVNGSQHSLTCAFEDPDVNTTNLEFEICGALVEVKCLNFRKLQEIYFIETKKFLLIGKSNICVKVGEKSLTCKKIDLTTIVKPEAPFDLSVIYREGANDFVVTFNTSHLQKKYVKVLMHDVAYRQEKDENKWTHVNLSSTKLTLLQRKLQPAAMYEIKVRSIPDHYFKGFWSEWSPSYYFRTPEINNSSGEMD

[3] = biological target: T1, hIL-7R (Example 11) (human); assay: NGS enrichment ratio, parental scFv, reference of the normalisation [cont'd]
[4] = biological target: T1, hIL-7R (Example 11) (human); assay: SPR (Biacore), ratio KD of parent 18B1 to KD of variant
[5] = biological target: T1, hIL-7R (Example 11) (human); assay: NGS enrichment ratio of the mutation in the scFv library selected at 0.2 nM hIL-7R

B1: Anti-IL-7R Antibody (Antibody A) (antibody, human IgG1, kappa, V domains shown)
VH: EVQLVESGGGLVQPGRSLRLSCAASGFTFDDHAMHWVRQAPGKGLEWVSGISWNSRGIGYADSVKGRFTIFRDNAKNSLYLQMNSLRAEDTALYYCAKDEYSRGYYVLDVWGQGTTVTVSS
VL: AIQLTQSPSSLSASVGDRVTITCRASQGISSALAWYQQKPGKAPKLLIYDASSLESGVPSRFSGSGSGTDFTLTISSLQPEDFATYYCQQFNSYPLWITFGQGTRLEIKR
MCP1 Production IC50, purified monocytes, TSLP [1]: 0.024 µM

B2: 18B1 scFv (scFv, V domains shown, not shown: small tags and cut ends)
VH: EVQLVESGGGLVQPGRSLRLSCAASGFTFDDHAMHWVRQAPGKGLEWVSGISWNSRGIGYADSVKGRFTIFRDNAKNSLYLQMNSLRAEDTALYYCAKDEYSRGYYVLDVWGQGTTVTVSS
VL: AIQLTQSPSSLSASVGDRVTITCRASQGISSALAWYQQKPGKAPKLLIYDASSLESGVPSRFSGSGSGTDFTLTISSLQPEDFATYYCQQFNSYPLWITFGQGTRLEIK
modifications: linker; domain order unknown
Kd [2]: 0.0013 µM | koff [2]: 0.000403 s⁻¹ | kon [2]: 311000 M⁻¹ s⁻¹ | 0.2 nM NGS [3]: 1

B3: 18B1 LC Y94A (antibody, human IgG1, kappa, V domains shown)
VH: EVQLVESGGGLVQPGRSLRLSCAASGFTFDDHAMHWVRQAPGKGLEWVSGISWNSRGIGYADSVKGRFTIFRDNAKNSLYLQMNSLRAEDTALYYCAKDEYSRGYYVLDVWGQGTTVTVSS
VL: AIQLTQSPSSLSASVGDRVTITCRASQGISSALAWYQQKPGKAPKLLIYDASSLESGVPSRFSGSGSGTDFTLTISSLQPEDFATYYCQQFNSAPLWITFGQGTRLEIKR
KD Relative to 18B1 [4]: 0.01 | 0.2 nM NGS [5]: 0.01

B4: 18B1 LC L95aA (antibody, V domains shown)
VH: EVQLVESGGGLVQPGRSLRLSCAASGFTFDDHAMHWVRQAPGKGLEWVSGISWNSRGIGYADSVKGRFTIFRDNAKNSLYLQMNSLRAEDTALYYCAKDEYSRGYYVLDVWGQGTTVTVSS
VL: AIQLTQSPSSLSASVGDRVTITCRASQGISSALAWYQQKPGKAPKLLIYDASSLESGVPSRFSGSGSGTDFTLTISSLQPEDFATYYCQQFNSYPAWITFGQGTRLEIKR
KD Relative to 18B1 [4]: 0.01 | 0.2 nM NGS [5]: 0.01
